Source: patent US7799901B2, “Modulators of the function of FAS receptors and other proteins” (Yeda Research and Development Co. Ltd., priority 1995, dated 2010)

Target: T1, MORT1DD (130-245) (Homo sapiens, UniProt Q13158)
T1 construct: 130-245 MORT-1; expressed in transfected cells
T1 sequence (Q13158 82-197): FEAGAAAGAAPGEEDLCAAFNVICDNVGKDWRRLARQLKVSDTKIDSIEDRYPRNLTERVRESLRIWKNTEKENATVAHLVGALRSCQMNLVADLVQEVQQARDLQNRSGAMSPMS
Assay: Two-hybrid β-galactosidase expression filter assay in SFY526 yeast, DNA-binding domain hybrid MORT1DD (130-245)
Excerpt: To isolate proteins interacting with the intracellular domain of the FAS-R, the yeast two-hybrid system was used (Fields and Song, 1989). […] In this system, the genes for the candidate interacting proteins are cloned into separate expression vectors. In one expression vector, the sequence of the one candidate protein is cloned in phase with the sequence of the GAL4 DNA-binding domain to generate a hybrid protein with the GAL4 DNA-binding-domain, and in the other vector, the sequence of the second candidate protein is cloned in phase with the sequence of the GAL4 activation domain to generate a hybrid protein with the GAL4-activation domain. The two hybrid vectors are then co-transformed into a yeast host strain having a lacZ or HIS3 reporter gene under the control of upstream GAL4 binding sites. […]
The yeast two-hybrid test was further applied to evaluate the specificity of binding of MACH to MORT-1, in particular, to define the region in MORT-1 to which MACH binds, as well as to determine which of the MACH ORFs interacts with MORT-1, the procedures being as set forth herein above in Examples 1 and 2. Briefly, various MORT-1 and MACH constructs were prepared for testing the interaction of the proteins encoded by the Gal4 DNA-binding domain and activation domain constructs within transfected SFY526 yeast cells as assessed by the β-galactosidase expression filter assay. […]

B1: MACHβ1: MACH isoform, cDNA SEQ ID NO: 4, amino acid SEQ ID NO: 5; lacks the CED3/ICE homology region (protein)
chain: MDFSRNLYDIGEQLDSEDLASLKFLSLDYIPQRKQEPIKDALMLFQRLQEKRMLEESNLSFLKELLFRINRLDLLITYLNTRKEEMERELQTPGRAQISAYRVMLYQISEEVSRSELRSFKFLLQEEISKCKLDDDMNLLDIFIEMEKRVILGEGKLDILKRVCAQINKSLLKIINDYEEFSKERSSSLEGSPDEFSNDFGQSLPNEKQTSGILSDHQQSQFCKSTGESAQTSQH
- development of color (interaction with DNA-binding domain hybrid): −−− (“−−−” indicates the lack of development of color within 24 hrs. of the assay)
